Laboratory results published in US20080145840A1.

Experiments:
[1] = system: C[C@H](N)C(=O)O; experiment: purified protein, by the assay type
[2] = system: Nc1ncnc2c1ncn2[C@@H]1O[C@H](COP(=O)(O)OP(=O)(O)OP(=O)(O)O)[C@@H](O)[C@H]1O; experiment: purified protein, by the assay type

Substance: E. coli MurC (Escherichia coli K-12)
- Km ([1]; other: ITC, pH 8.0): 44 µM
- Km ([1]; other: Phosphate detection): 56 µM
- Km ([2]; other: ITC, pH 8.0): 61 µM
- Km ([2]; other: Phosphate detection): 101 µM
